Experiment: soluble on expression in E. coli; label from the status in PepcDB or PDB records

| Sequence | soluble on expression in E. coli |
| --- | --- |
| MGSDKIHHHHHHMIIELNKSNSENLTKTELEIIKFINENESILPELSIVEIAHETYSSPATVSRAIRKCGLNGFNELRYRLTVKDENDDIQNMGDIINKSFIEAQRVIEQISLTTLINIIKTINKSSKIYILARGLTEYVAKEFSLKLQLLDFNVVFINDPNIMKIKSKSIKKDELIIIFSLNGNTIELVESAQNANLVGAKVITCCCSESAKLIKYSDLYIVGYKHEHISISEYEVSSRLPLYIISRIIIDYMVRYNNSEN | not soluble |
| MGSDKIHHHHHHMIKIAIVGFGTVGQGVAELLIRKREEIEKAIGEFKVTAVADSKSSISGDFSLVEALRMKRETGMLRDDAKAIEVVRSADYDVLIEASVTRVDGGEGVNYIREALKRGKHVVTSNKGPLVAEFHGLMSLAERNGVRLMYEATVGGAMPVVKLAKRYLALCEIESVKGIFNGTCNYILSRMEEERLPYEHILKEAQELGYAEADPSYDVEGIDAALKLVIIANTIGVKASYEDVEVTGITQITPEAFQVAAEKGYTIRLIAEVSREKLKVSPRLVPFHHPLAIKGTMNAAMFKTDTAGSIFVAGRGAGKEETASAILSDLYEIYAGPR | not soluble |
| MGSDKIHHHHHHMIKIKKSEDCCGCSACLSICNHNAIVFKEDVEGFKYPMIEEGKCINCGLCEMACPILYRKVKDIRPTPKAYFAARHKNIVTLRNSSSGGAFTAIAGSVIELGGVVCGVEYDNDGVVRHSFSETMEGIRSFMGSKYVQSEIQGVYNQIKTYLKSDRWVLFTGSPCQVEGLKLFLRKPYENLLTVDLVCHAVPSPLIYKQYINMCSTKLGQKVMSINMRYKQTYGWSHRFSYCFYFENGQKAVDPVWVVNWGKIFFSQMINRPSCHSCKYSNLDRPGDFTIADFWDDKKNRPDLYSCEGTSLLMVNTNMGLDLINKLYDSIDLWKITKDEAMQPCLIRPTCSNQRRQEFWEFYLLRGFDAAYKKYFGDSKYVITKKIVKQIIKRVLRKLQ | not soluble |
| MGSDKIHHHHHHMIKNFVLDTNVLLYDPQAIFKFEENNIIIPITVIEEIDRFKKDMNETGRNARQLSRYLDEMRATGSLANGIALETGGTLRVEMYEEKFMKVLPPELREERGDNRILAVALRVKEQDEATPVIFVTKDTNLRIKSDALGLKAEDYESDKVDIEELYPGFTELEVSAEMVDRFHGQGWVDLTGYDLHPNQFVTLRDAANPSHTALGKYRADQKRITPIAKNGKDGVWSIHPRNREQAFAFDALLDDSIKLVTLVGKAGTGKTLLAIAAGLHKTAEENVYNRLLVSRPVFPMGRDLGFLPGDIEEKLTPWMQPIFDNVELLLSGHEAEKRHSKGYKELMAMGIMDIEPLTYIRGRSIPLQFMIVDEAQNLTPHEIKTIITRAGEGTKIVLTGDPYQIDNPYVDASSNGLTYVVERFKGVPIAGHVTMTKGERSELAELAANLL | not soluble |
| MGSDKIHHHHHHMIKRLKIKNFKSYRDSEFEFEKVSIVVGPNGSGKTNLVDAFSFLKQLIRPLSYPPYPFIRWGDYKNVVFMQDENLDISFEIDGEYKGKDYHYEISLNKLQIKKEIINFDSYSMERRGNVIRYENKEMTIPDNLSVFNLFFAQPFIIAYNLNFTLPPELLNFMTNFLNDVGVFRIVPQIAVSPVHFTFPEALDENGRGLVKVISNNLSRINETKQVYDFLVENNISLRPVFTEDGNIRLHFIEKSENNKELILLPASVPDGFIKMLTIIIAVYLLKMSTIIIDEIENSLHLKYIERLVDIMRYSDSQFIATTHSPLIIDFMDPFRNNNS | not soluble |
| MGSDKIHHHHHHMIKSFWLENFGPISLLKADNLGKINLIIAENSKGKTFILKALYSVLKSHEEAHKGKNIRDFSEELRDKLYWTFQVEEIGDLVTRGKENPNERPLKLSMTLEDSSSVLFSFGRTTKKLIKPELYELSPRINANSIFLPPKEVLSLFDVIKKSEEEKRFGFDATYIDLVKALDIKPTKGRNYPEAAEARKDLEALFGGYVSYNDKKKAWVYEKDRQTFSINSTAEGVKKIGILDTLLGNRFLSPGSILFIDEPEANLHPKAINQFLEILFSLSKSKLGIQIFMSTHSYFVIKKLCLLARKHSESIPVFMPGKEKEQTTWVQENLQNSMPDNEIIGESIRLFREEIGVLSPETAWIG | not soluble |
| MGSDKIHHHHHHMIKSVLVIRNDKIGDFVLTWPALYELKMALPNASIEVFVDPVLKDFAMACPYIDHVIVDDGDDQAITKAFAERHYDAVIVSRSQIRTYRLLRKLDIPYKLAPKLNWYQYLYQHRTSIEVPKGLGGWRKSCMMVERFLADHRIPVPTLPTRYWDLSHERRKWQDHYGQQGEERLIFAHPGTGGSSGGISPSDFAGLLAQVDKLTAIECKFVLTYSGQEIALAQQIYDLLSAQGIKVVMAEPLASLADFAKSLVAADMFMAGSTGPLHIAGLHNVPTVGFYAGRRSAPKVRWQTLTQSERRLAFTPPVGKKTGRNMALIDFDLAAKEIAAFLDTQYASQSAVS | not soluble |
| MGSDKIHHHHHHMIKVNRYEIFLDFSFQTGDYKGYEKIEMESDEETVVLDAVGLKIVKAKVNGKEIEFSQDESRVNVKSGSFSGILEVEFEGKVTERKLVGIYKASYKDGYVISTQFEATHARDFIPCFDHPAMKARFKLTVRVDKGLKVISNMPVVREKEENGKVVYEFDETPKMSTYLLYLGIGNFEEIRDEGKIPTIIVATIPGKVQKGRFSMQISRNSIEFYEKYFEIPYQLPKVHLIAIPEFAYGAMENWGAITFRETALLADDSSSVYQKFRVAEVVAHELAHQWFGNLVTLKWWDDLWLNESFATFMSHKAISQLFPSWNFWDYFVLNQTSRALEKDSVSTTHPIEAHVRDPNEVEQMFDDISYGKGASILRMIEAYVGEENFRRGVVNYLKKFSYSNAQGSDLWNSISEVYGSDISPIMADWITKPGYPMVRVSVSGKRVSLEQERFSLIGNVENLLYKIPLTMEVNGKVVTHLLDKERDTMVFEEDVKSLKVNVNRTGFYRVFYYNNSDLVFNSNLSELDKWGIINDYWAFLLAGKIGFKEYERVISKFFNDKDFLPVNELSNELFTLHAINPDKYQGIAKEFHRIQLKNWRNSKDELGRLTYSNILYRLAAIDDEFSLGLSELFRFYGSLDSDTRQGVAVAYAITYEDNSVDELLERFRKETFDEEKLRYLTAMLFFRKPYLVGNTLSLILSGEIKKQDIPLTLSTAAYNPYAKSAVLNWIKMHINFMREAYKGTGILGRRLAEVIPLIGIGAERETEQFFSNLNMPEAERGIGTGLELLKAYSRLK | not soluble |
| MGSDKIHHHHHHMILKRISILNYKNLEQVEIGFSAKLNCFFGQNGMGKTNLLDAVYFLSFCKSSGNPIDSQNIRHEQDFFVIQGFYEAEDGTPEEIYCGMKRRSKKQFKRNKKEYSRFSDHIGFLPLVMVSPADSELIAGGSDERRRFMDVVISQYDKEYLEALIRYNKALAQRNTLLKSEFPVEEELFLVWEEMMAQAGEIVFRKREAFIEEFIPIFQSFYSFISQDKEQVGLSYDSHARDASLLEVLKQSRERDKIMGFSLRGIHKDELNMLLGDFPIKKEGSQGQNKTYLVALKLAQFDFLKRTGQTVPLLLLDDIFDKLDASRVEQIVKLVAGDNFGQIFITDTNREHLDRILQKVGSDYKVFRVDQGVINEMGAEQ | not soluble |
| MGSDKIHHHHHHMIMIRQLTPADFDAVITLGEIVHGSGYMDIAELTAIYHKGIKNGINANFVALENEQLIGFRLTYAAGQWPQDQWCTVDKWGVKFEDVCYFKSNTIAESGRGQGLGGKLLAASKAAVIAQGAKAGVSHLWQQSPNNAAVRYFTKAGGKLIKQHPQRWHQRYMGDDYICVLCGEDCHCVACEMLLLF | not soluble |
| MGSDKIHHHHHHMINKELTAATFMEVIAEDNRFIYDGIDSNFEPELVFLEFFEALLSFAFICVTDQMTKSYTNVPADDVSGNKHETIYTILNQDAQNKSPSAVMSHESDAAHSDSARSSSSKLELSPDVNKIRKSEPKIKKSVSHERVSKMNFKLTGKGITFFSSESKKYERPKDDREEEFNTWVNNTYVFFVNTLFHAYKREEAIKEKIRADRLRSTAQAQQRKMEDDELEARLNIFILREEEAKRHDYEVDITVLKEPADVSSSHLILDPPKEDVTVSPSSKTITSKKKKK | not soluble |
| MGSDKIHHHHHHMINQVYQLVAPRQFEVTYNNVDIYSDYVIVRPLYMSICAADQRYYTGSRDENVLSQKLPMSLIHEGVGEVVFDSKGVFNKGTKVVMVPNTPTEKDDVIAENYLKSSYFRSSGHDGFMQDFVLLNHDRAVPLPDDIDLSIISYTELVTVSLHAIRRFEKKSISNKNTFGIWGDGNLGYITAILLRKLYPESKIYVFGKTDYKLSHFSFVDDVFFINKIPEGLTFDHAFECVGGRGSQSAINQMIDYISPEGSIALLGVSEFPVEVNTRLVLEKGLTLIGSSRSGSKDFQDVVDLYIQYPDIVDKLALLKGQEYEIATINDLTEAFEADLSTSWGKTVLKWIM | not soluble |

Source: the DeepSol protein solubility set
